This note sets out measurements from US20250002998A1.

The target in experiment [1] is feline FAP in formalin fixed, paraffin embedded feline tissue sections (feline). Nature of the experiment: immunohistochemistry on a formalin fixed, paraffin embedded kidney section of cat #20-01692 with a low level of fibrosis (fibrosis score 1).
Experiment [2] shares this target. Nature of the experiment: immunohistochemistry on a formalin fixed, paraffin embedded kidney section of cat #20-10270 without fibrosis (fibrosis score 0); the score tells that no FAP was detected in this tissue, not that the antibody fails to bind FAP.
The target is the same in experiment [3]. Nature of the experiment: immunohistochemistry on a formalin fixed, paraffin embedded kidney section of cat #20-06613 with a higher level of fibrosis (fibrosis score 3).
Experiment [4] shares this target. Nature of the experiment: immunohistochemistry on a formalin fixed, paraffin embedded kidney section of cat #20-00774 with a higher level of fibrosis (fibrosis score 3).

As to “cross-reactive anti-FAP monoclonal antibody ab207178 from abcam”, the FAP score (0-3) amounted to 1 in experiment [1], 0 in experiment [2], 2 in experiment [3] and 2 in experiment [4].
